To fix the notation:
B2: CEACAM6 (carcinoembryonic antigen-related cell adhesion molecule 6) on the surface of human tumor cell lines (receptor)
chain: KLTIESTPFNVAEGKEVLLLAHNLPQNRIGYSWYKGERVDGNSLIVGYVIGTQQATPGPAYSGRETIYPNASLLIQNVTQNDTGFYTLQVIKSDLVNEEATGQFHVYPELPKPSISSNNSNPVEDKDAVAFTCEPEVQNTTYLWWVNGQSLPVSPRLQLSNGNMTLTLLSVKRNDAGSYECEIQNPASANRSDPVTLNVLYGPDVPTISPSKANYRPGENLNLSCHAASNPPAQYSWFINGTFQQSTQELFIPNITVNNSGSYMCQAHNSATGLNRTTVTMITVSG
notes: whole, on cells; also called CEACAM6 antigen; NCA

Assay [1] deals with B2. In words: cell-based ECL competition; unlabelled competitor against L-DOS47-tag (1 µg/mL) on BxPC-3 cells.
Assay [2] addresses T1, L-DOS47 (anti-CEACAM6-urease conjugate); AFAIKL2 antibody conjugated to Jack bean urease through the SIAB … (Jack bean (Canavalia ensiformis), UniProt P07374 1-840, primary amines linked through the SIAB linkage to urease cysteines); activation sites Lys76, Met1 (N-terminal amine), Lys44, Lys32; cysteine thiols linked through the SIAB linkage to AFAIKL2; …).
T1 construct: Chemical conjugate, not a fusion; Hexameric urease (six ~91 kDa subunits) carries 0-4 AFAIKL2 per subunit; In the ECL assays it was labelled with ruthenium-NHS-ester (Sulfo-Tag); also called antibody-urease conjugate; AFAIKL2-urease
In words: whole-cell binding assay, ZR-75-30 cells.

Assay [3] has as its target T2, DOS47 (Jack bean urease, unconjugated) (Jack bean (Canavalia ensiformis), UniProt P07374 1-840).
T2 construct: Purified from jack bean; hexamer of six identical subunits; also called HPU; high purity urease
In words: whole-cell binding assay (ammonia read-out) on BxPC-3, Capan-1, ZR-75-30, LS174T and MDA-MB231 cells.

“And” between values parts separate entries of the source, which are not always exact repeats. Equal values may be shown once.

T2 sequence (P07374 whole entry): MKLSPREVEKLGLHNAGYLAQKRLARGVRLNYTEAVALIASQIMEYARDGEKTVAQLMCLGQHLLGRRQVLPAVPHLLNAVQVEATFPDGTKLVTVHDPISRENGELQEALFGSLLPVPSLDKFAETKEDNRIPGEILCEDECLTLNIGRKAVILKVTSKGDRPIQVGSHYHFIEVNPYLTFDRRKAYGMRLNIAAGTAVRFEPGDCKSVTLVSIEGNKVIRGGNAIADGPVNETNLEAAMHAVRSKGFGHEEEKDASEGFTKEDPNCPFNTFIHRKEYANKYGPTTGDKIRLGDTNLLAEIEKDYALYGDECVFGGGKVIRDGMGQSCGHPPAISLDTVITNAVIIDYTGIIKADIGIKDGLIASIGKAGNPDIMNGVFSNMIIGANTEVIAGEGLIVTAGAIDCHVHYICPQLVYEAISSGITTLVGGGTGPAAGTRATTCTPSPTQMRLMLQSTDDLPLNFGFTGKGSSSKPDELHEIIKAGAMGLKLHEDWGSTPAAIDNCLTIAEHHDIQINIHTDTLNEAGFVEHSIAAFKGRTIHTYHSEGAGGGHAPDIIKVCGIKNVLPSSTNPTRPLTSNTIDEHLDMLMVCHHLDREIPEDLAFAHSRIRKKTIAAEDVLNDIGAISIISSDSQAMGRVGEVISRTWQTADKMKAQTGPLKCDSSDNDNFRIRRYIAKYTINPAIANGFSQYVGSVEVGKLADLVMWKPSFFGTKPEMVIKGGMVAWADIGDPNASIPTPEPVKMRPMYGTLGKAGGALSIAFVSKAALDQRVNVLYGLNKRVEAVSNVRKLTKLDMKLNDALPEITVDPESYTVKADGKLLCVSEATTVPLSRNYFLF
T1 sequence (P07374 whole entry, chain 1 of 2, the tested form may be a part): as the sequence (P07374 whole entry) above
T1 sequence (VHH, as listed by the source limits assumed, chain 2 of 2): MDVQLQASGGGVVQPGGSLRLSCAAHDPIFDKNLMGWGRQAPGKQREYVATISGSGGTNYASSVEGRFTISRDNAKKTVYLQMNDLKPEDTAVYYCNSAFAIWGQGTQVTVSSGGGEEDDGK

B1: AFAIKL2 antibody (single-domain camelid antibody fragment) (VHH)
VHH: DVQLQASGGGVVQPGGSLRLSCAAHDPIFDKNLMGWGRQAPGKQREYVATISGSGGTNYASSVEGRFTISRDNAKKTVYLQMNDLKPEDTAVYYCNSAFAIWGQGTQVTVSS
notes: Expressed in E. coli BL21 (DE3) pT7-7; also called AFAIKL2-tag; native single domain antibody
By IC50 is commonly meant the concentration needed to halve the response being measured. A lower IC50 goes with greater potency in that assay. Take B1: the IC50 in assay [1] is ~20 µg/mL and ~1.55 µM. For B2, the binding result in assay [2] is “binds”; in assay [3], “no binding”.
